Results from the supplement of paper PMC10567573.
± gives the standard deviation.

Test: protein stability index of a GFP-peptide fusion (GPS, HEK-293T) (PSI 1-6); higher = more stable
[1] = treatment: DMSO, c terminus: a fixed tail appended
[2] = treatment: MLN4924 1 uM, 8 h, c terminus: a fixed tail appended
[3] = treatment: DMSO, c terminus: native
[4] = treatment: MLN4924 1 uM, 8 h, c terminus: native
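Further: 24-mer peptide tiles fused after GFP, lentivirally expressed, FACS-sorted into six equal bins by GFP/DsRed ratio, decoded by Illumina sequencing, PSI is the read-weighted mean bin number.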

Sequence | protein stability index [1] | protein stability index [2] | protein stability index [3] | protein stability index [4]
LILSREASWAKPHYEFNLSRMKFR [LCOR] | 2.27 ± 0.18 | 2.11 ± 0.28 | – | –
RLPESVERLTGVSISQVNHKPLRT [FLOT1] | 4.06 ± 0.13 | 4.16 ± 0.32 | – | –
CEQCGKCKCGECTAPRTLPSCLAC [SPRY1] | 4.34 ± 0.2 | 4.56 ± 0.22 | – | –
REPPQAVSIKEAAGSSNLPAPERT [VENTX] | 5.26 ± 0.3 | 5.2 ± 0.54 | – | –
GELQESGLALCPEVQDLLEGCELP [SMG5] | 5.17 ± 0.11 | 5.08 ± 0.22 | – | –
NSPSSPSSSAASSSSPSSSSAVV [RHOBTB2] | – | – | 5.31 ± 0.12 | 5.456 ± 0.023
CEHECVNADGSYLCQCHEGFALNP [MATN2] | 4.77 ± 0.15 | 4.8 ± 0.4 | – | –
VCVRAHESVVKSEDFSLPAYMDRR [COX4I1] | 3.1 ± 0.43 | 3.14 ± 0.24 | – | –
ELDEEEVKAATTEPTEVEEVVPAL [BCL2L13] | 5.44 ± 0.28 | 5.54 ± 0.13 | – | –
TKEVMNKYKVHGKEILRTLQDVFC [PPEF2] | 2.63 ± 0.12 | 2.65 ± 0.34 | – | –
KIVLCAVSHVFMLLFNVKSPTDIQ [RHOBTB3] | 3.16 ± 0.17 | 3.09 ± 0.22 | – | –
FMHENLYFTNRKVNSVCWASLNHL [DCAF4] | 2.69 ± 0.48 | 2.46 ± 0.53 | – | –
LHALKLRSPDASPSRAPPSTQEPQ [GNAS] | 4.54 ± 0.25 | 4.65 ± 0.1 | – | –
YRFDSSSCSSEDNLSLVCLPRSED [DRICH1] | 4.46 ± 0.16 | 4.51 ± 0.15 | – | –
SQVSYFTYIPENNARGASIFSVTA [PCDHGA10] | 2.29 ± 0.56 | 2.39 ± 0.54 | – | –
KEKDSPFKPKLYKGDRGLPLEGSA [RBBP5] | 4.57 ± 0.34 | 4.32 ± 0.23 | – | –
MLEMVPEKRASAGECLRHPWLNS [SRPK2] | – | – | 3.79 ± 0.34 | 3.85 ± 0.25
RRLEQRWGFGLEELYGLALRFFKE [ACBD3] | 2.53 ± 0.8 | 2.31 ± 0.63 | – | –
LRKIIDFIYTAKLSLNMDNLQDTL [KLHL13] | 2.79 ± 0.63 | 2.44 ± 0.78 | – | –
MGQKLSGSLKSVEVREPALRPAKR [SPSB4] | 4.37 ± 0.31 | 4.62 ± 0.11 | – | –
PYGVYKKQQKDPSEEAAVLQYASL [ATE1] | 3.62 ± 0.23 | 3.8 ± 0.5 | – | –
TVEERQTGMWWRHLVAGGGAGAVS [SLC25A25] | 2.98 ± 0.39 | 2.96 ± 0.43 | – | –

Sequence | protein stability index [1] | protein stability index [2] | protein stability index [3] | protein stability index [4]
SLGASPTVAGIVGSSYGILQLFSS [MFSD9] | 2.08 ± 0.35 | 2.17 ± 0.47 | – | –
HFRGVSLNLTRKLAQQLCTALLFL [DYRK1B] | 2.04 ± 0.4 | 2.15 ± 0.23 | – | –
KEFTLLLSAANVCLDPIIYFFLCQ [P2RY14] | 3.06 ± 0.56 | 2.97 ± 0.17 | – | –
PSLPAAGEQDCCGERVVINISGLR [KCNA3] | 3.79 ± 0.36 | 3.76 ± 0.29 | – | –
LANACLPVRTTNKISKQFVAPADV [ZSWIM9] | 3.27 ± 0.2 | 3.5 ± 0.21 | – | –
VGLAAVNSMPVDNRNHNEGMVTRC [CHGB] | 4.27 ± 0.23 | 4.3 ± 0.37 | – | –
RWETSSWSECSRTCGEGYQFRVVR [ADAMTSL2] | 2.5 ± 0.84 | 2.21 ± 0.35 | – | –
TTLGPKLASQALTPPPGPASAQPL [TFE3] | 4.4 ± 0.48 | 4.4 ± 0.18 | – | –
YHLEKQTALLGGPRRCHSAPPQGS [PLEKHN1] | 3.28 ± 0.036 | 3.14 ± 0.53 | – | –
VSIKEAAGSSNLPAPERTMAGLSK [VENTX] | 4.28 ± 0.3 | 4.33 ± 0.19 | – | –
YKCAECGKSFCHSTHLTVHRRIHT [ZNF8] | 3.9 ± 0.18 | 4.42 ± 0.16 | – | –
TLEEKFSDVHPVALNFMKGCLKMN [CDKL4] | 3.08 ± 0.34 | 3.16 ± 0.27 | – | –
MYGVDLHHAKDSEGVEIMLGVCAS [EPB41L3] | 2.71 ± 0.3 | 2.77 ± 0.51 | – | –
EAAKGGHTSVVCYLLDYPNNLLSA [ANKRD17] | 2.02 ± 0.57 | 2.06 ± 0.47 | – | –
KCGNCQTKLHDIDGVPHLILIASR [KMT5A] | 2.35 ± 0.46 | 2.51 ± 0.41 | – | –
SIPNLAEVKKKGKMKKLGQAMEED [HDAC6] | 4.8 ± 0.088 | 4.86 ± 0.44 | – | –
VPSEEPQESDQTEEHESGIEQFSE [IQUB] | 5.69 ± 0.13 | 5.57 ± 0.38 | – | –
GFAERRIDKFGFIVGSQGAEGALE [TBC1D10A] | 3.93 ± 0.46 | 3.93 ± 0.19 | – | –
SCAPSASIPKLKLTRPVPAGADLP [PWWP2B] | 3.21 ± 0.25 | 3.35 ± 0.27 | – | –
EHKETSRNLHSHYHEAPMTRKHYQ [POMT2] | 4.09 ± 0.28 | 4.22 ± 0.2 | – | –
AIQYALNIAFSEAEGARPLRENVP [MATN2] | 2.36 ± 0.21 | 2.08 ± 0.23 | – | –
SDMDRNKTILGNAHDNSEELERAR [ANKRD44] | 5.58 ± 0.16 | 5.57 ± 0.3 | – | –

Sequence | protein stability index [1] | protein stability index [2] | protein stability index [3] | protein stability index [4]
SHLVIHNLFEGMIWFIVPISCVIC [CDS2] | 3.09 ± 0.45 | 2.81 ± 0.2 | – | –
EFMLLPANQLIDIISSDELNVRSE [KLHL20] | 3.71 ± 0.37 | 3.38 ± 0.44 | – | –
IRGPAGNNDCRIYVGNLPPDIRTK [SRSF1] | 3.43 ± 0.25 | 3.38 ± 0.27 | – | –
AASLVTMGIVNLNIHMNFTHICRS [SLC2A12] | 3.46 ± 0.27 | 3.16 ± 0.21 | – | –
EPLEPEVKYVGNMHGNEALGRELM [CPN1] | 4.63 ± 0.088 | 4.82 ± 0.18 | – | –
SCEACKAFFKRTIQGNIEYSCPAT [ESRRG] | 2.46 ± 0.25 | 2.64 ± 0.37 | – | –
ESRMRIESLSSQLSNLQKESRACL [LMNB1] | 3.63 ± 0.34 | 3.94 ± 0.12 | – | –
EFPDFYDSEEPVSTHQEAENEKDR [CHGB] | 5.68 ± 0.25 | 5.54 ± 0.24 | – | –
EWARALETRDWGGAQFEGEKGRAL [ZSWIM9] | 3.88 ± 0.3 | 3.9 ± 0.31 | – | –
VKLLVDLELSYGFENGQKAAVVHH [TOR1AIP2] | 2.22 ± 0.26 | 2.3 ± 0.12 | – | –
DPFDEIILFSLPPALDWDSVHVPG [PTPN9] | 2.55 ± 0.29 | 2.6 ± 0.19 | – | –
GAYQPTVVSSEGRQSRRQSVSRFF [FBF1] | 4.01 ± 0.37 | 4.1 ± 0.32 | – | –
VEVLVDLFLKEGACDELFSYLIEK [PRAME] | 2.55 ± 0.66 | 3.03 ± 0.58 | – | –
TKMWHPNIYENGDVCISILHPPVD [UBE2R2] | 2.11 ± 0.34 | 2.23 ± 0.055 | – | –
RLCLVCGDIASGYHYGVASCEACK [ESRRG] | 4.15 ± 0.12 | 4.21 ± 0.18 | – | –
NYRIAGARLMRSNYPPPLSSAALR [C6orf223] | 3.16 ± 0.41 | 3.2 ± 0.3 | – | –
ESPFSRKLDLWSFLDIPRSRLVKY [NET1] | 2.06 ± 0.14 | 2.15 ± 0.21 | – | –
PTHTPRPADFSLGSLPGPGQTSGA [VENTX] | 4.44 ± 0.18 | 4.5 ± 0.2 | – | –
PDVTRVGLLQYGSTVKNEFSLKTF [MATN2] | 2.94 ± 0.23 | 2.85 ± 0.44 | – | –
VSHVGWDPQNGFDVNNLDPDLRSL [WAS] | 3.9 ± 0.24 | 3.98 ± 0.3 | – | –
LKDEEGKLKDLSTVTSLQVPVLKP [PPP2R2C] | 4.91 ± 0.17 | 5.02 ± 0.085 | – | –
